In the supplement of paper PMC5998384:

Legend:
HeLa Kyoto [1] = test: solubility in G1/S (NP-40 vs SDS abundance) (log2 ratio); higher = more soluble; details: cell cycle stage: G1/S
HeLa Kyoto [2] = test: solubility change mitosis vs G1/S (difference of NP-40 vs SDS log2 ratios) (log2 ratio difference); higher = more soluble in mitosis
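For solubility change mitosis vs G1/S (difference of NP-40 vs SDS log2 ratios) in this document: synchronized HeLa Kyoto cells (double thymidine block for G1/S, nocodazole release for mitosis), protein amounts in NP-40 versus SDS lysates quantified by mass spectrometry, three biological replicates.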
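For solubility in G1/S (NP-40 vs SDS abundance) in this document: HeLa Kyoto cells arrested at G1/S by double thymidine block, proteins quantified by TMT10plex mass spectrometry in mild NP-40 versus SDS extracts, three biological replicates.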

Sequence: MCAQYCISFADVEKAHINIRDSIHLTPVLTSSILNQLTGRNLFFKCELFQKTGSFKIRGALNAVRSLVPDALERKPKAVVTHSSGNHGQALTYAAKLEGIPAYIVVPQTAPDCKKLAIQAYGASIVYCEPSDESRENVAKRVTEETEGIMVHPNQEPAVIAGQGTIALEVLNQVPLVDALVVPVGGGGMLAGIAITVKALKPSVKVYAAEPSNADDCYQSKLKGKLMPNLYPPETIADGVKSSIGLNTWPIIRDLVDDIFTVTEDEIKCATQLVWERMKLLIEPTAGVGVAAVLSQHFQTVSPEVKNICIVLSGGNVDLTSSITWVKQAERPASYQSVSV [SRR]
- solubility in G1/S (log2) (HeLa Kyoto [1]): 0.0946
- solubility change mitosis (log2) (HeLa Kyoto [2]): 0.0667

Sequence: MCDQQQIQCRLPLQQCCVKGPSFCSSQSPFAQSQVVVQAPCEMQIVDCPASCPVQVCQVSDQAPCQSQTTQVKCQSKTKQVKGQAQCQSKTTQVKGQAASQSQTSSVQSQAPCQSEVSYVQCEASQPVQTCFVECAPVCYTETCYVECPVQNYVPCPAPQPVQMYRGRPAVCQPQGRFSTQCQYQGSYSSCGPQFQSRATCNNYTPQFQLRPSYSSCFPQYRSRTSFSPCVPQCQTQGSYGSFTEQHRSRSTSRCLPPPRRLQLFPRSCSPPRRFEPCSSSYLPLRPSEGFPNYCTPPRRSEPIYNSRCPRRPISSCSQRRGPKCRIEISSPCCPRQVPPQRCPVEIPPIRRRSQSCGPQPSWGASCPELRPHVEPRPLPSFCPPRRLDQCPESPLQRCPPPAPRPRLRPEPCISLEPRPRPLPRQLSEPCLYPEPLPALRPTPRPVPLPRPGQCEIPEPRPCLQPCEHPEPCPRPEPIPLPAPCPSPEPCRETWRSPSPCWGPNPVPYPGDLGCHESSPHRLDTEAPYCGPSSYNQGQESGAGCGPGDVFPERRGQDGHGDQGNAFAGVKGEAKSAYF [KPRP]
- solubility in G1/S (log2) (HeLa Kyoto [1]): -1.06
- solubility change mitosis (log2) (HeLa Kyoto [2]): 1.12

Sequence: MDDDKPFQPKNISKMAELFMECEEEELEPWQKKVEETQDEDDDELIFVGEISSSKPAISNILNRGHSSSSSKGIKSEPHSPGIPEIFRTASQRCRDPPSNPVAASPRFHLVSKSSQSSVTVENASKPDFTKNSQVGSDNSSILLFDSTQESLPPSQDIPAIFREGMKNTSYVLKHPSTSKVNSVTPKKPKTSEDVPQINPSTSLPLIGSPPVTSSQVMLSKGTNTSSPYDAGADYLRACPKCNVQFNLLDPLKYHMKHCCPDMITKFLGVIVKSERPCDEDKTDSETGKLIMLVNEFYYGRHEGVTEKEPKTYTTFKCFSCSKVLKNNIRFMNHMKHHLELEKQNNESWENHTTCQHCYRQYPTPFQLQCHIESTHTPHEFSTICKICELSFETEHILLQHMKDTHKPGEMPYVCQVCQFRSSTFSDVEAHFRAAHENTKNLLCPFCLKVSKMATPYMNHYMKHQKKGVHRCPKCRLQFLTSKEKAEHKAQHRTFIKPKELEGLPPGAKVTIRASLGPLQSKLPTAPFGCAPGTSFLQVTPPTSQNTTARNPRKSNASRSKTSKLHATTSTASKVNTSKPRGRIAKSKAKPSYKQKRQRNRKNKMSLALKNIRCRRGIHKCIECHSKIKDFASHFSIYIHCSFCKYNTNCNKAFVNHMMSSHSNHPGKRFCIFKKHSGTLRGITLVCLKCDFLADSSGLDRMAKHLSQRKTHTCQVIIENVSKSTSTSEPTTGCSLK [ZNF280C]
- solubility in G1/S (log2) (HeLa Kyoto [1]): -1.44
- solubility change mitosis (log2) (HeLa Kyoto [2]): 0.796

Sequence: MDDDLMLALRLQEEWNLQEAERDHAQESLSLVDASWELVDPTPDLQALFVQFNDQFFWGQLEAVEVKWSVRMTLCAGICSYEGKGGMCSIRLSEPLLKLRPRKDLVETLLHEMIHAYLFVTNNDKDREGHGPEFCKHMHRINSLTGANITVYHTFHDEVDEYRRHWWRCNGPCQHRPPYYGYVKRATNREPSAHDYWWAEHQKTCGGTYIKIKEPENYSKKGKGKAKLGKEPVLAAENKDKPNRGEAQLVIPFSGKGYVLGETSNLPSPGKLITSHAINKTQDLLNQNHSANAVRPNSKIKVKFEQNGSSKNSHLVSPAVSNSHQNVLSNYFPRVSFANQKAFRGVNGSPRISVTVGNIPKNSVSSSSQRRVSSSKISLRNSSKVTESASVMPSQDVSGSEDTFPNKRPRLEDKTVFDNFFIKKEQIKSSGNDPKYSTTTAQNSSSSSSQSKMVNCPVCQNEVLESQINEHLDWCLEGDSIKVKSEESL [SPRTN]
- solubility in G1/S (log2) (HeLa Kyoto [1]): -0.206
- solubility change mitosis (log2) (HeLa Kyoto [2]): 0.0242

Sequence: MDDSDTPTYYLQIEPQDGCHPGDSVERSVTCLPSASDENENQLDGDGHEHLTSSDSAMGKPQVSEQDSLNNNESCTLSCEVAAGENLQNTLCEASRDEQAFLGKDKKIPGKRSPRSKKGTAKKIPPGLFSGDIAPLMQEKVLSAVTYAVDDEEAAEVNANEQPEAPKLVLQSLFSLIRGEVEQLDSRALPLCLHQIAESYFQEEDYEKAMKFIQLERLYHEQLLANLSAIQEQWETKWKTVQPHTVTALRNSEKGFNGEDFERLTKICATHQDPLLSKHKIAAVEKSQERKCSTQLLVSEDPKEGGATTKESESKTCLGTESSKESQHTVEPLGSSPCCHQMDVQTDSPSLSVTAGKDHMEELLCSAEATLALHTQSSETAGSPSGPDSSEDACEDDSRLQLAQTEACQDVARIEGIAEDPKVFLSSKSKTEPLISPGCDRIPPALISEGKYSQAQRKELRLPLRDASEALPTDQLENNELNELQQPDLTDSDGKSPQAQADSDGSENVLCGNNQISDLGILLPEVCMAPEEKGDKDDQLNKETEDYLNSLLEGCLKDTEDSLSYEDNQDDDSDLLQDLSPEEASYSLQENLPSDESCLSLDDLAKRIEIAEVVPTEGLVSILKKRNDTVGDHPAQMQHKPSKRRVRFQEIDDSLDQDEVGGGSCILLVLLCIATVFLSVGGTALYCTFGDMESPVCTDFADNMDFYYTKLLQGVAELKHWIYLS [CNST]
- solubility in G1/S (log2) (HeLa Kyoto [1]): 0.292
- solubility change mitosis (log2) (HeLa Kyoto [2]): -0.0548

Sequence: MDGAVMEGPLFLQSQRFGTKRWRKTWAVLYPASPHGVARLEFFDHKGSSSGGGRGSSRRLDCKVIRLAECVSVAPVTVETPPEPGATAFRLDTAQRSHLLAADAPSSAAWVQTLCRNAFPKGSWTLAPTDNPPKLSALEMLENSLYSPTWEGSQFWVTVQRTEAAERCGLHGSYVLRVEAERLTLLTVGAQSQILEPLLSWPYTLLRRYGRDKVMFSFEAGRRCPSGPGTFTFQTAQGNDIFQAVETAIHRQKAQGKAGQGHDVLRADSHEGEVAEGKLPSPPGPQELLDSPPALYAEPLDSLRIAPCPSQDSLYSDPLDSTSAQAGEGVQRKKPLYWDLYEHAQQQLLKAKLTDPKEDPIYDEPEGLAPVPPQGLYDLPREPKDAWWCQARVKEEGYELPYNPATDDYAVPPPRSTKPLLAPKPQGPAFPEPGTATGSGIKSHNSALYSQVQKSGASGSWDCGLSRVGTDKTGVKSEGST [DOK1]
- solubility in G1/S (log2) (HeLa Kyoto [1]): -0.257
- solubility change mitosis (log2) (HeLa Kyoto [2]): 0.00435

Sequence: MDPGWGQRDVGWAALLILFAASLLTVFAWLLQYARGLWLARARGDRGPGPALAGEPAGSLRELGVWRSLLRLRATRAGAAEEPGVRGLLASLFAFKSFRENWQRAWVRALNEQACRNGSSIQIAFEEVPQLPPRASISHVTCVDQSEHTMVLRCQLSAEEVRFPVSVTQQSPAAVSMETYHVTLTLPPTQLEVNLEEIPGEGLLISWAFTDRPDLSLTVLPKLQARERGEEQVELSTIEELIKDAIVSTQPAMMVNLRACSAPGGLVPSEKPPMMPQAQPAIPRPNRLFLRQLRASHLGNELEGTEELCCVAELDNPMQQKWTKPARAGSEVEWTEDLALDLGPQSRELTLKVLRSSSCGDTELLGQATLPVGSPSRPLSRRQLCPLTPGPGKALGPAATMAVELHYEEGSPRNLGTPTSSTPRPSITPTKKIELDRTIMPDGTIVTTVTTVQSRPRIDGKLDSPSRSPSKVEVTEKTTTVLSESSGPSNTSHSSSRDSHLSNGLDPVAETAIRQLTEPSGRVAKKTPTKRSTLIISGVSKVPIAQDELALSLGYAASLEASVQDDAGTSGGPSSPPSDPPAMSPGPLDALSSPTSVQEADETTRSDISERPSVDDIESETGSTGALETRSLKDHKVSFLRSGTKLIFRRRPRQKEAGLSQSHDDLSNATATPSVRKKAGSFSRRLIKRFSFKSKPKANGNPSPQL [C2CD2L]
- solubility in G1/S (log2) (HeLa Kyoto [1]): -0.0395
- solubility change mitosis (log2) (HeLa Kyoto [2]): -0.0722
